We go through 12 molecules from patent publication US20210196796A1 (SYNTHEKINE, published 2021).

Substitutions are numbered along the chain they refer to. Names and notes keep the numbering of the source.

The labels stand for the following.
B1: C125A, SQVLKA (ligand)
chain: APTSSSTKKTQLQLSQLLVLLKAILNGINNYKNPKLTRMLTFKFYMPKKATELKHLQCLEEELKPLEEVLNLAQSKNFHLRPRDLISNINVIVLELKGSETTFMCEYADETATIVEFLNRWITFAQSIISTLT
B2: L14W, SQVLKA (ligand)
chain: B1 chain with L14W, A125C
B3: Q126D, SQVLKA (ligand)
chain: B1 chain with A125C, Q126D
B4: Q126K, SQVLKA (ligand)
chain: B1 chain with A125C, Q126K
B5: Q126G, SQVLKA (ligand)
chain: B1 chain with A125C, Q126G
B6: Q126R, SQVLKA (ligand)
chain: B1 chain with A125C, Q126R
B7: C125S, SQVLKA (ligand)
chain: B1 chain with A125S
B8: Q126H, SQVLKA (ligand)
chain: B1 chain with A125C, Q126H
B9: Q126M, SQVLKA (ligand)
chain: B1 chain with A125C, Q126M
B10: Q126I, SQVLKA (ligand)
chain: B1 chain with A125C, Q126I
B11: Q126C, SQVLKA (ligand)
chain: B1 chain with A125C, Q126C
B12: Q126E, SQVLKA (ligand)
chain: B1 chain with A125C, Q126E
Wherever Relative Proliferation Fold Change 3F8 1:10 is given: reference of the scale not given here.
Wherever Relative Proliferation Fold Change 3F8 1:2 is given: reference of the scale not given here.
Wherever Relative Proliferation Fold Change 3F8 1:50 is given: reference of the scale not given here.
Wherever Relative Proliferation Fold Change NKL 1:10 is given: reference of the scale not given here.
Wherever Relative Proliferation Fold Change NKL 1:2 is given: reference of the scale not given here.
Wherever Relative Proliferation Fold Change NKL 1:50 is given: reference of the scale not given here.

One assay has as its target T1, orthogonal hCD122 receptor (hoRb), hCD122 with H133D and Y134F (human, UniProt P14784 27-550).
T1 sequence: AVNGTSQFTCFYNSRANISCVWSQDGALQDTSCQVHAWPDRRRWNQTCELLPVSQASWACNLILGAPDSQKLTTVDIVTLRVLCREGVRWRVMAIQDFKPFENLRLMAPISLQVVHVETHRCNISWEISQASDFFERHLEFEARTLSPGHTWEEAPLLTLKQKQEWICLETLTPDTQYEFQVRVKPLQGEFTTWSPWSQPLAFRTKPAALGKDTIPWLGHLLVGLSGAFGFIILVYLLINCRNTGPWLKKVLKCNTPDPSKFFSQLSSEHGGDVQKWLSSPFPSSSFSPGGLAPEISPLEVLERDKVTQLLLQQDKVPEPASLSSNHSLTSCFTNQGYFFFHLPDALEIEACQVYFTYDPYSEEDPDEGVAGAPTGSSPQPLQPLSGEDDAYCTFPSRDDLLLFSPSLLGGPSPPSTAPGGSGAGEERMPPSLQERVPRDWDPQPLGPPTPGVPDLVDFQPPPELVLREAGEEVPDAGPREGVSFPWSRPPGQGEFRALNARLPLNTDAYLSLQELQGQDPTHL
In words: cell-based or functional assay.
Consider B1, for which the “NKL Ortho Proliferation Signal 1:2” value turned out to be 42000, the “NKL Ortho Proliferation Signal 1:10” value came to 50400, the “NKL Ortho Proliferation Signal 1:50” value was 22800 and the “Relative Proliferation Fold Change NKL 1:2” value came out at 3.95 fold. The “Relative Proliferation Fold Change NKL 1:10” value amounted to 3.6 fold and the “Relative Proliferation Fold Change NKL 1:50” value was determined as 1.95 fold.

Turning to B2, the “NKL Ortho Proliferation Signal 1:2” value is 50300, the “NKL Ortho Proliferation Signal 1:10” value is 45100, the “NKL Ortho Proliferation Signal 1:50” value turned out to be 20900 and the “Relative Proliferation Fold Change NKL 1:2” value stood at 4.04 fold. In addition, the “Relative Proliferation Fold Change NKL 1:10” value was found to be 2.83 fold and the “Relative Proliferation Fold Change NKL 1:50” value was determined as 1.39 fold.

B3: the “NKL Ortho Proliferation Signal 1:2” value worked out at 4640, the “NKL Ortho Proliferation Signal 1:10” value worked out at 7560, the “NKL Ortho Proliferation Signal 1:50” value amounted to 6380 and the “Relative Proliferation Fold Change NKL 1:2” value worked out at 0.39 fold. Further, the “Relative Proliferation Fold Change NKL 1:10” value is 0.49 fold and the “Relative Proliferation Fold Change NKL 1:50” value worked out at 0.46 fold.

On to B4, for which the “NKL Ortho Proliferation Signal 1:2” value was determined as 6510, the “NKL Ortho Proliferation Signal 1:10” value amounted to 7930, the “NKL Ortho Proliferation Signal 1:50” value came out at 6980 and the “Relative Proliferation Fold Change NKL 1:2” value was 0.54 fold. The “Relative Proliferation Fold Change NKL 1:10” value is 0.56 fold and the “Relative Proliferation Fold Change NKL 1:50” value was 0.53 fold.

For B5, the “NKL Ortho Proliferation Signal 1:2” value came out at 5740, the “NKL Ortho Proliferation Signal 1:10” value stood at 7220, the “NKL Ortho Proliferation Signal 1:50” value came out at 6050 and the “Relative Proliferation Fold Change NKL 1:2” value was 0.45 fold. The “Relative Proliferation Fold Change NKL 1:10” value amounted to 0.49 fold and the “Relative Proliferation Fold Change NKL 1:50” value came to 0.45 fold.

Take B6: the “NKL Ortho Proliferation Signal 1:2” value is 13900, the “NKL Ortho Proliferation Signal 1:10” value was found to be 9670, the “NKL Ortho Proliferation Signal 1:50” value worked out at 6650 and the “Relative Proliferation Fold Change NKL 1:2” value worked out at 1.18 fold. Also, the “Relative Proliferation Fold Change NKL 1:10” value came to 0.75 fold and the “Relative Proliferation Fold Change NKL 1:50” value stood at 0.57 fold.

With B7, the “NKL Ortho Proliferation Signal 1:2” value was 48200, the “NKL Ortho Proliferation Signal 1:10” value is 59500, the “NKL Ortho Proliferation Signal 1:50” value turned out to be 27800 and the “Relative Proliferation Fold Change NKL 1:2” value was determined as 4.29 fold. Also, the “Relative Proliferation Fold Change NKL 1:10” value worked out at 4.53 fold and the “Relative Proliferation Fold Change NKL 1:50” value is 2.26 fold.

Consider B8, for which the “NKL Ortho Proliferation Signal 1:2” value turned out to be 43600, the “NKL Ortho Proliferation Signal 1:10” value was 29000, the “NKL Ortho Proliferation Signal 1:50” value amounted to 15800 and the “Relative Proliferation Fold Change NKL 1:2” value turned out to be 3.64 fold. Further, the “Relative Proliferation Fold Change NKL 1:10” value came to 1.92 fold and the “Relative Proliferation Fold Change NKL 1:50” value turned out to be 1.09 fold.

As to B9, the “NKL Ortho Proliferation Signal 1:2” value turned out to be 19800, the “NKL Ortho Proliferation Signal 1:10” value worked out at 18700, the “NKL Ortho Proliferation Signal 1:50” value was 9760 and the “Relative Proliferation Fold Change NKL 1:2” value was found to be 2 fold. Further, the “Relative Proliferation Fold Change NKL 1:10” value was determined as 1.29 fold and the “Relative Proliferation Fold Change NKL 1:50” value worked out at 0.74 fold.

Take B10: the “NKL Ortho Proliferation Signal 1:2” value amounted to 40000, the “NKL Ortho Proliferation Signal 1:10” value amounted to 35600, the “NKL Ortho Proliferation Signal 1:50” value was found to be 16700 and the “Relative Proliferation Fold Change NKL 1:2” value came to 3.78 fold. Also, the “Relative Proliferation Fold Change NKL 1:10” value stood at 2.5 fold and the “Relative Proliferation Fold Change NKL 1:50” value was 1.25 fold.

B11: the “NKL Ortho Proliferation Signal 1:2” value is 6560, the “NKL Ortho Proliferation Signal 1:10” value amounted to 8210, the “NKL Ortho Proliferation Signal 1:50” value worked out at 7200 and the “Relative Proliferation Fold Change NKL 1:2” value was 0.44 fold. The “Relative Proliferation Fold Change NKL 1:10” value amounted to 0.53 fold and the “Relative Proliferation Fold Change NKL 1:50” value came out at 0.49 fold.

As to B12, the “NKL Ortho Proliferation Signal 1:2” value worked out at 10600, the “NKL Ortho Proliferation Signal 1:10” value is 8600, the “NKL Ortho Proliferation Signal 1:50” value is 6800 and the “Relative Proliferation Fold Change NKL 1:2” value worked out at 1.01 fold. For the same molecule, the “Relative Proliferation Fold Change NKL 1:10” value is 0.68 fold and the “Relative Proliferation Fold Change NKL 1:50” value came to 0.55 fold.

A further assay addresses T1, orthogonal hCD122 receptor (hoRb), …. Briefly: cell-based or functional assay. The source holds these as a separate data set.
Turning to B1, the “3F8 Ortho Proliferation Signal 1:2” value turned out to be 43700 cts/min, the “3F8 Ortho Proliferation Signal 1:10” value is 44600 cts/min, the “3F8 Ortho Proliferation Signal 1:50” value stood at 24800 cts/min and the “Relative Proliferation Fold Change 3F8 1:2” value was 0.72 fold. Also, the “Relative Proliferation Fold Change 3F8 1:10” value was 4.37 fold and the “Relative Proliferation Fold Change 3F8 1:50” value amounted to 5.3 fold.

On to B2, for which the “3F8 Ortho Proliferation Signal 1:2” value was 35300 cts/min, the “3F8 Ortho Proliferation Signal 1:10” value turned out to be 36000 cts/min, the “3F8 Ortho Proliferation Signal 1:50” value was 13600 cts/min and the “Relative Proliferation Fold Change 3F8 1:2” value was determined as 66.2 fold. Besides, the “Relative Proliferation Fold Change 3F8 1:10” value came out at 31.8 fold and the “Relative Proliferation Fold Change 3F8 1:50” value came out at 16.5 fold.

For B3, the “3F8 Ortho Proliferation Signal 1:2” value is 294 cts/min, the “3F8 Ortho Proliferation Signal 1:10” value is 368 cts/min, the “3F8 Ortho Proliferation Signal 1:50” value came to 544 cts/min and the “Relative Proliferation Fold Change 3F8 1:2” value came to 0.63 fold. The “Relative Proliferation Fold Change 3F8 1:10” value came out at 0.4 fold and the “Relative Proliferation Fold Change 3F8 1:50” value amounted to 0.61 fold.

As for B4, the “3F8 Ortho Proliferation Signal 1:2” value is 2720 cts/min, the “3F8 Ortho Proliferation Signal 1:10” value was found to be 2490 cts/min, the “3F8 Ortho Proliferation Signal 1:50” value is 964 cts/min and the “Relative Proliferation Fold Change 3F8 1:2” value amounted to 9.18 fold. Further, the “Relative Proliferation Fold Change 3F8 1:10” value is 7.29 fold and the “Relative Proliferation Fold Change 3F8 1:50” value was 1.51 fold.

For B5, the “3F8 Ortho Proliferation Signal 1:2” value was determined as 1540 cts/min, the “3F8 Ortho Proliferation Signal 1:10” value was 1100 cts/min, the “3F8 Ortho Proliferation Signal 1:50” value worked out at 838 cts/min and the “Relative Proliferation Fold Change 3F8 1:2” value turned out to be 7.05 fold. In addition, the “Relative Proliferation Fold Change 3F8 1:10” value worked out at 2.14 fold and the “Relative Proliferation Fold Change 3F8 1:50” value was 1.14 fold.

Take B6: the “3F8 Ortho Proliferation Signal 1:2” value is 22400 cts/min, the “3F8 Ortho Proliferation Signal 1:10” value was found to be 18100 cts/min, the “3F8 Ortho Proliferation Signal 1:50” value was 3710 cts/min and the “Relative Proliferation Fold Change 3F8 1:2” value worked out at 0.49 fold. For the same molecule, the “Relative Proliferation Fold Change 3F8 1:10” value is 1.44 fold and the “Relative Proliferation Fold Change 3F8 1:50” value was found to be 1.37 fold.

On to B7, for which the “3F8 Ortho Proliferation Signal 1:2” value stood at 36200 cts/min, the “3F8 Ortho Proliferation Signal 1:10” value turned out to be 45000 cts/min, the “3F8 Ortho Proliferation Signal 1:50” value is 26100 cts/min and the “Relative Proliferation Fold Change 3F8 1:2” value came out at 140 fold. Also, the “Relative Proliferation Fold Change 3F8 1:10” value amounted to 66.6 fold and the “Relative Proliferation Fold Change 3F8 1:50” value worked out at 26.9 fold.

In the case of B8, the “3F8 Ortho Proliferation Signal 1:2” value amounted to 36500 cts/min, the “3F8 Ortho Proliferation Signal 1:10” value was found to be 38600 cts/min, the “3F8 Ortho Proliferation Signal 1:50” value is 18700 cts/min and the “Relative Proliferation Fold Change 3F8 1:2” value was determined as 181 fold. For the same molecule, the “Relative Proliferation Fold Change 3F8 1:10” value is 54.1 fold and the “Relative Proliferation Fold Change 3F8 1:50” value is 14.5 fold.

B9: the “3F8 Ortho Proliferation Signal 1:2” value stood at 33100 cts/min, the “3F8 Ortho Proliferation Signal 1:10” value was 33200 cts/min, the “3F8 Ortho Proliferation Signal 1:50” value was 17100 cts/min and the “Relative Proliferation Fold Change 3F8 1:2” value worked out at 154 fold. Further, the “Relative Proliferation Fold Change 3F8 1:10” value worked out at 55.6 fold and the “Relative Proliferation Fold Change 3F8 1:50” value turned out to be 31.8 fold.

Turning to B10, the “3F8 Ortho Proliferation Signal 1:2” value was determined as 27400 cts/min, the “3F8 Ortho Proliferation Signal 1:10” value came out at 27000 cts/min, the “3F8 Ortho Proliferation Signal 1:50” value was 9510 cts/min and the “Relative Proliferation Fold Change 3F8 1:2” value was found to be 30 fold. Besides, the “Relative Proliferation Fold Change 3F8 1:10” value turned out to be 11.3 fold and the “Relative Proliferation Fold Change 3F8 1:50” value came out at 8.69 fold.

Take B11: the “3F8 Ortho Proliferation Signal 1:2” value is 452 cts/min, the “3F8 Ortho Proliferation Signal 1:10” value worked out at 574 cts/min, the “3F8 Ortho Proliferation Signal 1:50” value stood at 748 cts/min and the “Relative Proliferation Fold Change 3F8 1:2” value is 2.28 fold. Besides, the “Relative Proliferation Fold Change 3F8 1:10” value was found to be 0.68 fold and the “Relative Proliferation Fold Change 3F8 1:50” value came to 1.4 fold.

Consider B12, for which the “3F8 Ortho Proliferation Signal 1:2” value is 21000 cts/min, the “3F8 Ortho Proliferation Signal 1:10” value was found to be 14600 cts/min, the “3F8 Ortho Proliferation Signal 1:50” value was found to be 2660 cts/min and the “Relative Proliferation Fold Change 3F8 1:2” value is 129 fold. Besides, the “Relative Proliferation Fold Change 3F8 1:10” value amounted to 33.6 fold and the “Relative Proliferation Fold Change 3F8 1:50” value turned out to be 6.4 fold.
